*1 amine or outer side, *2 acyl side, *3 side chain or, on linkers, in order; H or OH if unused. Where no end group is shown, it is not given here. Side-chain parts run from the residue outwards. [ ]: non-standard residue; d: D form. The star is where a group is joined. C20 diacid = O=C(O)CCCCCCCCCCCCCCCCCCC(=O)*; C18 diacid = O=C(O)CCCCCCCCCCCCCCCCC(=O)*; γGlu = O=C(O)[C@H](CCC(=O)[*:2])N[*:1]; Trx = NC[C@H]1CC[C@H](C(=O)O)CC1; Nle = CCCC[C@H](N)C(=O)O; AEEA = NCCOCCOCC(=O)O; Aib = CC(C)(N)C(=O)O
T1: human GIP receptor (human, UniProt P48546 22-466)
T1 sequence (looked up): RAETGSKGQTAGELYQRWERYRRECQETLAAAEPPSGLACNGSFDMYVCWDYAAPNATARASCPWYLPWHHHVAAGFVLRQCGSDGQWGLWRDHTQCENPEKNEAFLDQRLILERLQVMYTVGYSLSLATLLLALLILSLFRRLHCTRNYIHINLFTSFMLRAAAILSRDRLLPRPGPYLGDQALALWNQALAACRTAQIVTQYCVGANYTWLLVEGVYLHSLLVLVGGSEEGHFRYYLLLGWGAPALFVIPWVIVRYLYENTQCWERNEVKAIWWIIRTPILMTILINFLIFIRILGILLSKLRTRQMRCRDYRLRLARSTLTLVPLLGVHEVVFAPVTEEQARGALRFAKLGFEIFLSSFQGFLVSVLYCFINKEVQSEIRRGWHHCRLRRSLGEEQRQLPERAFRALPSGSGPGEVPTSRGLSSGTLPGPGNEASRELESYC


How the values were obtained:
Assay in all cases: cell-based or functional assay
[1] = molecular target: human GLP-1 receptor (human, UniProt P43220 24-463)
[2] = molecular target: human glucagon receptor (human, UniProt P47871 26-477)
Chain of human glucagon receptor (P47871 26-477): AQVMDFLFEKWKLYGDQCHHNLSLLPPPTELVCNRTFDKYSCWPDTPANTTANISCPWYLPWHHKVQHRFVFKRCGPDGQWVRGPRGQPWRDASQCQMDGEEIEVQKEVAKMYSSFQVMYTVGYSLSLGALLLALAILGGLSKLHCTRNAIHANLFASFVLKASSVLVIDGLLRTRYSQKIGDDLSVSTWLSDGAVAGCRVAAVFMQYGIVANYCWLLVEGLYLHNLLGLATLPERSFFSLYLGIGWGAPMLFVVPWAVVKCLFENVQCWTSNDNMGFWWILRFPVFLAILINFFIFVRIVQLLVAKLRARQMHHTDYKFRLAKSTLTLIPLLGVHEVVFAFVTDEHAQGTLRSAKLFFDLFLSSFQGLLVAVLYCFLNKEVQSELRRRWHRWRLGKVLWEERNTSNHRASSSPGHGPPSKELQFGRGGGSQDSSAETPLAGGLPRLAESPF

[3] = molecular target: T1, human GIP receptor

| Molecule | EC50, hGLP-1-R CRE Luc, 0.2% HSA [1] [nM] | EC50, hGcg-R CRE Luc, 0.2% HSA [2] [nM] | EC50, hGIP-R CRE Luc, 0.2% HSA [3] [nM] | EC50, hGLP-1-R CRE Luc, 1% HSA (*) [1] [nM] | EC50, hGcg-R CRE Luc, 1% HSA (*) [2] [nM] |
| --- | --- | --- | --- | --- | --- |
| hGIP(1-42) (from UniProt P09681 52-93) (ligand) | > 100 | > 100 |  |  |  |
| Y[Aib]EGTFISDYSIA[Nle]DKIRQQDFVK([γGlu-γGlu-γGlu-C18 diacid])WLLAQKGKEEDWKHNITQ | > 100 | > 100 | 0.00447 |  |  |
| Ac-[dY][Aib]EGTFISDYSIA[Nle]DKIRQQDFVK([γGlu-γGlu-γGlu-γGlu-Trx-C20 diacid])WLLAQKP-NH2 |  |  | 0.0261 | > 10 | > 100 |
| Y[Aib]EGTFISDYSIA[Nle]DKIHQQDFVK([γGlu-γGlu-γGlu-C18 diacid])WLLAQKG |  |  | 0.0499 | > 100 | > 100 |
| Y[Aib]EGTFISDYSIA[Nle]DKIHQQDFVK([AEEA-AEEA-γGlu-C18 diacid])WLLAQKGKEDDWKHNITQ | > 100 | > 100 | 0.00597 |  |  |
| Y[Aib]EGTFISDYSIA[Nle]DKIHQQDFVK([γGlu-γGlu-γGlu-C18 diacid])WLLAQKGKENDWKHNITQ |  |  | 0.0213 | > 100 | > 100 |
| Y[Aib]EGTFISDYSIA[Nle]DKIHQQDFVK([γGlu-γGlu-γGlu-C18 diacid])WLLAQKGKEDDWKHNITQ | > 100 | > 100 | 0.0059 |  |  |
| Y[Aib]EGTFISDYSIALDKIHQQDFVK([AEEA-AEEA-γGlu-C18 diacid])WLLAQKGKKNDWKHNITQ |  |  | 0.056 | > 100 | > 100 |
| Y[Aib]EGTFISDYSIA[Nle]DKIHQQDFVK([γGlu-γGlu-γGlu-C18 diacid])WLLAQKGKEEDWKHNITQ | > 100 | > 100 | 0.009 |  |  |
| Y[Aib]EGTFISDYSIA[Nle]DKIRQQDFVK([AEEA-AEEA-γGlu-C18 diacid])WLLAQKGKEEDWKHNITQ | > 100 | > 100 | 0.00412 |  |  |
| Y[Aib]EGTFISDYSIA[Nle]DKIHQQDFVK([AEEA-AEEA-γGlu-C18 diacid])WLLAQKGKEEDWKHNITQ | > 100 | > 100 | 0.00545 |  |  |
| Y[Aib]EGTFISDYSIA[Nle]DKIRQQDFVK([γGlu-γGlu-γGlu-C18 diacid])WLLAQKGKENDWKHNITQ |  |  | 0.0201 | > 100 | > 100 |

From US20220000982A1 (Novo Nordisk, published 2022)
